Experimental data as given in the supplement of paper PMC7877785.
± gives the uncertainty stated by the source.

Assay: self-splicing fitness, log relative to wild type (ln ratio); higher = more splicing; Tetrahymena group I intron in knt gene, E. coli kanamycin selection, DiMSum; sequences stand for … in CUCUCU…GGAGGGAAAAGUUAUCAGGCAUGCACCUGGUAGCUAGUCUUUAAACCAAUAGAUUGCAUCGGUUUAAAAGGCAAGACCGUCAAAUUGCGGGAAAGGGGUCAACAGCCGUUCAGUACCAAGUCUCAGGGGAAACUUUGAGAUGGCCUUGCAAAGGGUAUGGUAAUAAGCUGACGGACAUGGUCCUAACCACGCAGCCAAGUCCUAAGUCAACAGAUCUUCUGUUGAUAUGGAUGCAGUUCACAGACUAAAUGUCGGUCGGGGAAGAUGUAUUCUUCUCAUAAGAUAUAGUCGGACCUCUCCUUAAUGGGAGCUAGCGGAUGAAGUGAUGCAACACUGGAGCCGCUGGGAACUAAUUUGUAUGCGAAAGUAUAUUGAUUAGUUUUGGAGUACUCGUGGUCG
Procedure, shortened: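 Six replicate transformations of E. coli BL21(DE3) with a pET-22b(+) library were grown overnight at 37°C or 30°C. The library randomised all eight P1ex-region intron nucleotides, the intron lying in the knt kanamycin-resistance gene, and plates were LB agar with or without 25 μg/mL kanamycin plus 100 μg/mL carbenicillin, 50 μM IPTG and 0.2% rhamnose. Pooled colonies were amplicon-sequenced on an Illumina HiSeq 2500, and fitness is the DiMSum error-weighted combination of wild-type-normalised replicate fold changes, kanamycin versus none.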

Sequence	self-splicing fitness (ln) (30 °C)	self-splicing fitness (ln) (37 °C)
AACUAGCAAUAUUACGACAC	-1.04 ± 0.085	-0.404 ± 0.11
UAUCAGCAAUAUUACGCAAA	-0.36 ± 0.12	-0.755 ± 0.11
UAGUAGCAAUAUUACGGUGU	-3.57 ± 0.32	-3.21 ± 0.4
CCAUAGCAAUAUUACGGCUG	-3.05 ± 0.15	-1.62 ± 0.14
UCCUAGCAAUAUUACGUAUC	-2.65 ± 0.14	-2.44 ± 0.21
CCAUAGCAAUAUUACGAUGA	-0.628 ± 0.092	-0.23 ± 0.1
UUUGAGCAAUAUUACGCACG		-1.45 ± 0.42
AGGGAGCAAUAUUACGAGGU	-2.64 ± 0.17	-3.55 ± 0.31
AAUGAGCAAUAUUACGGACU	-1.59 ± 0.13	-2.04 ± 0.19
GACCAGCAAUAUUACGACGU	-0.417 ± 0.064	0.321 ± 0.078
GGAUAGCAAUAUUACGAAAU	-1.09 ± 0.12	-0.476 ± 0.12
UUAGAGCAAUAUUACGGCGA	0.109 ± 0.063	-0.0898 ± 0.074
GAGUAGCAAUAUUACGCGCU		-0.5 ± 0.39
UCGGAGCAAUAUUACGUACU		-2.6 ± 0.34
UUCAAGCAAUAUUACGUUUU	-3.78 ± 0.17	-2.65 ± 0.16
CUCGAGCAAUAUUACGGCUA		-2.32 ± 0.39
CUGGAGCAAUAUUACGCAAU	-3.93 ± 0.33	-2.08 ± 0.29
UCAAAGCAAUAUUACGCCAU	-3.37 ± 0.24	-2.27 ± 0.19
GACUAGCAAUAUUACGCCGG		-1.67 ± 0.36
UUGAAGCAAUAUUACGCGUA	-0.169 ± 0.069	-0.247 ± 0.098
UUCCAGCAAUAUUACGUCCU	-2.67 ± 0.21	-2.29 ± 0.32
UUCGAGCAAUAUUACGAGGC	-2.45 ± 0.29	-2.98 ± 0.3
UGCGAGCAAUAUUACGGCUG	-1.04 ± 0.1	-0.349 ± 0.15
CGAGAGCAAUAUUACGCCUA	-2.4 ± 0.36	-0.235 ± 0.38
AUAGAGCAAUAUUACGUGGU	-2.91 ± 0.19	-1.83 ± 0.2
UCCAAGCAAUAUUACGAUGU	-1.37 ± 0.057	-0.338 ± 0.082

Sequence	self-splicing fitness (ln) (30 °C)	self-splicing fitness (ln) (37 °C)
CGCGAGCAAUAUUACGCUGG	-1.39 ± 0.18	-1.31 ± 0.28
CGGUAGCAAUAUUACGCCUG	-1.32 ± 0.13	-0.225 ± 0.11
GCUCAGCAAUAUUACGUGGC	-3.61 ± 0.19	-2.79 ± 0.3
GAGAAGCAAUAUUACGCUAA	-2.47 ± 0.3	-0.911 ± 0.24
ACAAAGCAAUAUUACGAUUC	-1.92 ± 0.085	-0.67 ± 0.1
GUCAAGCAAUAUUACGCGGG	-4.2 ± 0.2	-3.33 ± 0.24
UACAAGCAAUAUUACGUGAU	-3.16 ± 0.14	-1.34 ± 0.14
CUAAAGCAAUAUUACGUUAG	-2.33 ± 0.093	-1.77 ± 0.1
ACCCAGCAAUAUUACGCUAC	-4.01 ± 0.27	-2.38 ± 0.19
CGCAAGCAAUAUUACGGCGC	-2.37 ± 0.12	-1.73 ± 0.18
CGGGAGCAAUAUUACGUUUG	-2.75 ± 0.17	-2.11 ± 0.19
UCCUAGCAAUAUUACGCGCA	-1.31 ± 0.1	-0.0853 ± 0.097
UAUAAGCAAUAUUACGGUAC	-3.46 ± 0.3	-2.23 ± 0.29
ACAUAGCAAUAUUACGGCAU	-1.06 ± 0.072	-0.486 ± 0.079
AGCAAGCAAUAUUACGUAUA	-2.91 ± 0.15	-1.85 ± 0.15
CUCUAGCAAUAUUACGCUGA	-1.6 ± 0.21	-2.31 ± 0.27
GGAGAGCAAUAUUACGUCAU	-2.38 ± 0.31	-2.61 ± 0.33
UAUGAGCAAUAUUACGCCUG	-1.44 ± 0.14	-1.57 ± 0.26
UGGCAGCAAUAUUACGAGGU	-3.29 ± 0.23	-2.53 ± 0.3
GAUGAGCAAUAUUACGUUAU	-3.98 ± 0.23	-1.77 ± 0.16
ACAAAGCAAUAUUACGUUAC	-4.4 ± 0.22	-2.42 ± 0.22
GACAAGCAAUAUUACGCACA	-0.149 ± 0.086	-0.296 ± 0.11
CAAAAGCAAUAUUACGAAAA	-2.35 ± 0.18	-2.11 ± 0.2
UGGAAGCAAUAUUACGGGGG	-2.52 ± 0.32	-2.89 ± 0.49
CUAUAGCAAUAUUACGCAAU	-3.66 ± 0.24	-1.58 ± 0.21
UAAGAGCAAUAUUACGCGGG	-3.49 ± 0.37	-3.91 ± 0.36

Sequence	self-splicing fitness (ln) (30 °C)	self-splicing fitness (ln) (37 °C)
UCUCAGCAAUAUUACGGAUC	-3.82 ± 0.32	-1.52 ± 0.13
GUGGAGCAAUAUUACGUCCU	-1.24 ± 0.14	-0.219 ± 0.14
AUCAAGCAAUAUUACGGCUC	-0.551 ± 0.063	-0.7 ± 0.076
UGCUAGCAAUAUUACGACUU	-0.801 ± 0.2	-0.152 ± 0.17
GCAAAGCAAUAUUACGCUUA	-2.59 ± 0.15	-1.46 ± 0.12
GUCGAGCAAUAUUACGGUCG	-2.44 ± 0.22	-1.94 ± 0.28
GAAUAGCAAUAUUACGGAUC	-0.118 ± 0.058	-0.207 ± 0.073
CGGUAGCAAUAUUACGUCAG	-0.671 ± 0.15	-1.09 ± 0.17
AACCAGCAAUAUUACGUGCU	-3.52 ± 0.16	-1.94 ± 0.15
CUCCAGCAAUAUUACGGACG	-0.729 ± 0.059	-0.666 ± 0.09
GUAUAGCAAUAUUACGACGC	-0.42 ± 0.16	0.113 ± 0.18
AAAUAGCAAUAUUACGGCUA	-0.705 ± 0.12	-0.0895 ± 0.13
CAGAAGCAAUAUUACGAGAU	-3.23 ± 0.17	-2.44 ± 0.23
UAGAAGCAAUAUUACGUUCC	-2.51 ± 0.19	-0.539 ± 0.17
CCCGAGCAAUAUUACGUAUA	-2.79 ± 0.17	-2.82 ± 0.26
GUCAAGCAAUAUUACGUAGG	-3.17 ± 0.14	-2.28 ± 0.15
UGUAAGCAAUAUUACGCAAA	-2.11 ± 0.16	-0.927 ± 0.13
ACCCAGCAAUAUUACGGCCG	-2.81 ± 0.15	-2.6 ± 0.19
CAGCAGCAAUAUUACGCGGG	-2.78 ± 0.17	-2.31 ± 0.2
AGCUAGCAAUAUUACGCUGG	-3.58 ± 0.2	-2.31 ± 0.3
CCCCAGCAAUAUUACGGGGC	-2.95 ± 0.1	-3.43 ± 0.17
AGGCAGCAAUAUUACGAGCU	-0.501 ± 0.1	-0.299 ± 0.13
AACAAGCAAUAUUACGCGAA	-1.78 ± 0.073	-0.546 ± 0.084
GCUCAGCAAUAUUACGAUAC	-1.15 ± 0.13	-0.697 ± 0.17
